The target in data set [1] is U2 snRNP-B" 1-109 (Homo sapiens) (UniProt P08579). In words: EMSA.
In data set [2] the target is U1 snRNP-A 1-142 (Homo sapiens) (UniProt P09012). The experiment in a line: EMSA.
The target of data set [3] is A/B".1A pentamer mutant 1-142 L44V,V45A,S46L,R47K,S48T (Homo sapiens) (UniProt P09012). In words: EMSA.
Data set [4] deals with U2 snRNP-B" + U2 snRNP-A' (Homo sapiens). In words: pulldown. The conditions noted are these: A' stimulates B" binding to U2 about 100-fold.
Setting [5] is: legend says full-length U2, text says U2 stem-loop IV.

Like-named read-outs stand apart in the source and are kept apart here.

Chain of UniProt P08579 (P08579 1-109): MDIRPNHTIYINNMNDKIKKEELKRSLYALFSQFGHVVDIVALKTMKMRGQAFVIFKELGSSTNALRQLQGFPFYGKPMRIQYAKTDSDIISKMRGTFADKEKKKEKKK

With U1SL2 (U1 stem-loop II), the Kd was 800 nM in data set [1]; 30 nM in data set [2] (earlier estimate 80 nM quoted, 10 mM MgCl2, 150 mM NaCl); 70 nM in data set [3].
As to human U2 RNA, the binding signal in data set [4] is 100 fold. The results for the dissociation constant Kd in data set [1] (setting [5]), in data set [2] (setting [5]) and in data set [3] (setting [5]) were 400 nM, over 10000 nM and 900 nM, respectively.

The values are drawn from patent US5866680.
